Measured values reported in publication PMC3527552.

Assay: cell lysate anti-HA Western blot
Conditions: glycan lost; control: untreated

B1: OATP1B1: tunicamycin 0.5 μg/ml, 42 h (protein)
parent chain: MDQNQHLNKTAEAQPSENKKTRYCNGLKMFLAALSLSFIAKTLGAIIMKSSIIHIERRFEISSSLVGFIDGSFEIGNLLVIVFVSYFGSKLHRPKLIGIGCFIMGIGGVLTALPHFFMGYYRYSKETNINSSENSTSTLSTCLINQILSLNRASPEIVGKGCLKESGSYMWIYVFMGNMLRGIGETPIVPLGLSYIDDFAKEGHSSLYLGILNAIAMIGPIIGFTLGSLFSKMYVDIGYVDLSTIRITPTDSRWVGAWWLNFLVSGLFSIISSIPFFFLPQTPNKPQKERKASLSLHVLETNDEKDQTANLTNQGKNITKNVTGFFQSFKSILTNPLYVMFVLLTLLQVSSYIGAFTYVFKYVEQQYGQPSSKANILLGVITIPIFASGMFLGGYIIKKFKLNTVGIAKFSCFTAVMSLSFYLLYFFILCENKSVAGLTMTYDGNNPVTSHRDVPLSYCNSDCNCDESQWEPVCGNNGITYISPCLAGCKSSSGNKKPIVFYNCSCLEVTGLQNRNYSAHLGECPRDDACTRKFYFFVAIQVLNLFFSALGGTSHVMLIVKIVQPELKSLALGFHSMVIRALGGILAPIYFGALIDTTCIKWSTNNCGTRGSCRTYNSTSFSRVYLGLSSMLRVSSLVLYIILIYAMKKKYQEKDINASENGSVMDEANLESLNKNKHFVPSAGADSETHC
  expression_or_secretion: decreases
